From paper PMC10693918 come the findings set out here.

For the test, the target named is TniQ transposition protein of the type I-F3b CAST element Tn6900, His6-tagged. In words: cryo-EM structure.

A word on the stoichiometry N: it is the number of molecules, sites or subunits per partner or assembly. Regarding “TniQ transposition protein of the type I-F3b CAST element Tn6900, His6-tagged (natural protein)”, the stoichiometry N worked out at 2.
